According to paper PMC4072462:

B1: fabBec B+D (dsDNA)
DNA 1: TCTATTAAATGGCTGATCGGACTTGTTCGGCGTACAAGTGTACGCTATTGTGCATTC
DNA 2: GAATGCACAATAGCGTACACTTGTACGCCGAACAAGTCCGATCAGCCATTTAATAGA
B2: fabAec B+D (dsDNA)
DNA 1: TTTATTCCGAACTGATCGGACTTGTTCAGCGTACACGTGTTAGCTATCCTGCGTGC
DNA 2: GCACGCAGGATAGCTAACACGTGTACGCTGAACAAGTCCGATCAGTTCGGAATAAA

Target: FabR_vc (N-terminal His6) (Vibrio cholerae, UniProt Q9KVJ2 1-213)
Test: EMSA

Binder	binding result
B1	binds
B2	binds
